Source: patent US20230340160A1 (published 2023)

Assays:
[1] = biological target: T1, Human EGFR (immobilized on CM5 sensor chip) (human, UniProt P00533 25-645, limits assumed); experiment: SPR; construct (200 nM) captured on immobilized human EGFR, then CD3 fusion injected (FIG. 18D)
T1 construct: 8000 RU immobilized by amine coupling; also called Epidermal Growth Factor Receptor
Description: Analysis of simultaneous binding of the T-cell bispecific constructs to the tumor antigen and the human CD3ε was performed by direct coupling of 1650 resonance units (RU) of biotinylated D3 domain of MCSP on a sensor chip SA using the standard coupling procedure. Human EGFR was immobilized using standard amino coupling procedure. 8000 RU were immobilized on a CM5 sensor chip at pH 5.5.
Different T-cell bispecific constructs were captured for 60 s at 200 nM. Human CD3γ(G₄S)₅CD3ε-AcTev-Fc(knob)-Avi/Fc(hole) was subsequently passed at a concentration of 2000 nM and a flow rate of 40 µl/min for 60 s. Bulk refractive index differences were corrected for by subtracting the response obtained on a reference flow cell where the recombinant CD3ε was flown over a surface with immobilized D3 domain of MCSP or EGFR without captured T-cell bispecific constructs.

[2] = biological target: T2, murine FcγRIV (murine); experiment: SPR (Biacore T100, 25 °C); receptor captured on anti-Penta His, construct as analyte; kinetic
T2 construct: Captured on anti-Penta His antibody in SPR; also called muFcγRIV-aviHis-biotin
Description: (§1) For analyzing interaction of different Fc-variants with human FcγRIIIa-V158 and murine FcγRIV direct coupling of around 6,500 resonance units (RU) of the anti-Penta His antibody (Qiagen) is performed on a CM5 chip at pH 5.0 using the standard amine coupling kit (Biacore, Freiburg/Germany). HuFcγRIIIa-V158-K6H6 and muFcγRIV-aviHis-biotin are captured for 60 s at 4 and 10 nM respectively.
(§2) Constructs with different Fc-mutations are passed through the flow cells for 120 s at a concentration of 1000 nM with a flow rate of 30 µl/min. The dissociation is monitored for 220 s. Bulk refractive index differences are corrected for by subtracting the response obtained in a reference flow cell. Here, the Fc-variants are flown over a surface with immobilized anti-Penta His antibody but on which HBS-EP has been injected rather than HuFcγRIIIa-V158-K6H6 or muFcγRIV-aviHis-biotin. Affinity for human FcγRIIIa-V158 and murine FcγRIV was determined for wild-type Fc using a concentration range from 500 - 4000 nM.
(§3) The steady state response was used to derive the dissociation constant KD by non-linear curve fitting of the Langmuir binding isotherm. Kinetic constants were derived using the Biacore T100 Evaluation Software (vAA, Biacore AB, Uppsala/Sweden), to fit rate equations for 1:1 Langmuir binding by numerical integration.

[3] = biological target: T3, human FcγRIIIa-V158 (human, UniProt P08637 17-208); experiment: SPR (Biacore T100, 25 °C); receptor captured on anti-Penta His, construct as analyte 500 - 4000 nM; steady state
T3 construct: His-tagged recombinant receptor captured on anti-Penta His antibody in SPR; also called huFcγRIIIa-V158-K6H6; HuFcγRIIIa-V158-K6H6; not shown: K6H6 tag, named only by this short form
Description: as §1, §2, §3

[4] = biological target: T2, murine FcγRIV; experiment: as above
Description: as §1, §2, §3

[5] = biological target: T3, human FcγRIIIa-V158; experiment: SPR (Biacore T100, 25 °C); receptor captured on anti-Penta His, construct as analyte; kinetic; second value in parentheses, not explained
Description: as §1, §2, §3

[6] = biological target: T3, human FcγRIIIa-V158; experiment: SPR (Biacore T100, 25 °C); His-tagged receptor captured on anti-Penta His, construct as analyte; kinetic 1:1 fit, one concentration (1000 nM)
Description: as §1, §2, §3

[7] = biological target: T4, human CD3 expressed on Jurkat cells (human, UniProt P07766 23-207); experiment: flow cytometry on Jurkat cells, 50 nM
T4 construct: CD3 complex on Jurkat cells (ATCC TIB-152); also called huCD3
Description: (§4) Binding of the different bispecific constructs to CD3 on Jurkat cells (ATCC #TIB-152), and the respective tumor antigen on target cells, was determined by FACS. Briefly, cells were harvested, counted and checked for viability. 0.15 - 0.2 million cells per well (in PBS containing 0.1% BSA; 90 µl) were plated in a round-bottom 96-well plate and incubated with the indicated concentration of the bispecific constructs and corresponding IgG controls (10 µl) for 30 min at 4° C. For a better comparison, all constructs and IgG controls were normalized to same molarity. After the incubation, cells were centrifuged (5 min, 350 × g), washed with 150 µl PBS containing 0.1% BSA, resuspended and incubated for further 30 min at 4° C. with 12 µl/well of a FITC-or PE-conjugated secondary antibody. Bound constructs were detected using a FACSCantoII (Software FACS Diva). The “(scFv)₂” molecule was detected using a FITC-conjugated anti-His antibody (Lucerna, #RHIS-45F-Z). For all other molecules, a FITC- or PE-conjugated AffiniPure F(ab′)2 Fragment goat anti-human IgG Fcγ Fragment Specific (Jackson Immuno Research Lab # 109-096-098 / working solution 1:20, or #109-116-170 / working solution 1:80, respectively) was used. Cells were washed by addition of 120 µl/well PBS containing 0.1% BSA and centrifugation at 350 × g for 5 min. A second washing step was performed with 150 µl/well PBS containing 0.1% BSA. Unless otherwise indicated, cells were fixed with 100 µl/well fixation buffer (BD #554655) for 15 min at 4° C. in the dark, centrifuged for 6 min at 400 × g and kept in 200 µl/well PBS containing 0.1% BSA until the samples were measured with FACS CantoII. EC50 values were calculated using the GraphPad Prism software.
(§5) In a first experiment, different bispecific constructs targeting human MCSP and human CD3 were analyzed by flow cytometry for binding to human CD3 expressed on Jurkat, human T cell leukaemia cells, or to human MCSP on Colo-38 human melanoma cells.

[8] = biological target: T5, human MCSP expressed on tumor cells (human, UniProt Q6UVK1 30-2322); experiment: flow cytometry on Colo-38 cells, 50 nM
T5 construct: whole, on cells; On Colo-38, WM266-4, MV-3 or MDA-MB-435 cells, as named in each row; also called huMCSP; Melanoma-associated Chondroitin Sulfate Proteoglycan
Description: as §4, §5

[9] = biological target: T3, human FcγRIIIa-V158; experiment: SPR (Biacore T100, 25 °C); receptor captured on anti-Penta His, construct as analyte; kinetic 1:1 fit, one concentration (1000 nM)
Description: as §1, §2, §3

T3 sequence (P08637 17-208 F176V): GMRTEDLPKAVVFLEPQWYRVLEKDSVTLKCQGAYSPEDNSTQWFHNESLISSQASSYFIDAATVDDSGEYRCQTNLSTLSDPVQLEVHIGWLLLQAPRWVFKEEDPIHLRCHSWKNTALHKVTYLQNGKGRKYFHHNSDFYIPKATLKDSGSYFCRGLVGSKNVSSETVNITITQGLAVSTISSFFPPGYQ
T2 sequence (A0A0B4J1G0 21-203): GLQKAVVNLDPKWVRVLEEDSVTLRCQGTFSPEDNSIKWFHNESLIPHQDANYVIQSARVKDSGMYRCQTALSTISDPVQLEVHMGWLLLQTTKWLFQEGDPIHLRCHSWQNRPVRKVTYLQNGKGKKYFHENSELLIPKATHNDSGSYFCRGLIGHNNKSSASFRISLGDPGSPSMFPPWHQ
T4 sequence (P07766 23-207 limits assumed): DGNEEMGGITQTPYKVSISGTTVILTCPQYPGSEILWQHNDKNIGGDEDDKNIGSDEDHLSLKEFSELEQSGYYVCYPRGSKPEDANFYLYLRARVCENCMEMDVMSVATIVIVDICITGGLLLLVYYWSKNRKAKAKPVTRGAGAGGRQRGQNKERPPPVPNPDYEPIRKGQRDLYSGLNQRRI
T5 sequence (Q6UVK1 30-2322): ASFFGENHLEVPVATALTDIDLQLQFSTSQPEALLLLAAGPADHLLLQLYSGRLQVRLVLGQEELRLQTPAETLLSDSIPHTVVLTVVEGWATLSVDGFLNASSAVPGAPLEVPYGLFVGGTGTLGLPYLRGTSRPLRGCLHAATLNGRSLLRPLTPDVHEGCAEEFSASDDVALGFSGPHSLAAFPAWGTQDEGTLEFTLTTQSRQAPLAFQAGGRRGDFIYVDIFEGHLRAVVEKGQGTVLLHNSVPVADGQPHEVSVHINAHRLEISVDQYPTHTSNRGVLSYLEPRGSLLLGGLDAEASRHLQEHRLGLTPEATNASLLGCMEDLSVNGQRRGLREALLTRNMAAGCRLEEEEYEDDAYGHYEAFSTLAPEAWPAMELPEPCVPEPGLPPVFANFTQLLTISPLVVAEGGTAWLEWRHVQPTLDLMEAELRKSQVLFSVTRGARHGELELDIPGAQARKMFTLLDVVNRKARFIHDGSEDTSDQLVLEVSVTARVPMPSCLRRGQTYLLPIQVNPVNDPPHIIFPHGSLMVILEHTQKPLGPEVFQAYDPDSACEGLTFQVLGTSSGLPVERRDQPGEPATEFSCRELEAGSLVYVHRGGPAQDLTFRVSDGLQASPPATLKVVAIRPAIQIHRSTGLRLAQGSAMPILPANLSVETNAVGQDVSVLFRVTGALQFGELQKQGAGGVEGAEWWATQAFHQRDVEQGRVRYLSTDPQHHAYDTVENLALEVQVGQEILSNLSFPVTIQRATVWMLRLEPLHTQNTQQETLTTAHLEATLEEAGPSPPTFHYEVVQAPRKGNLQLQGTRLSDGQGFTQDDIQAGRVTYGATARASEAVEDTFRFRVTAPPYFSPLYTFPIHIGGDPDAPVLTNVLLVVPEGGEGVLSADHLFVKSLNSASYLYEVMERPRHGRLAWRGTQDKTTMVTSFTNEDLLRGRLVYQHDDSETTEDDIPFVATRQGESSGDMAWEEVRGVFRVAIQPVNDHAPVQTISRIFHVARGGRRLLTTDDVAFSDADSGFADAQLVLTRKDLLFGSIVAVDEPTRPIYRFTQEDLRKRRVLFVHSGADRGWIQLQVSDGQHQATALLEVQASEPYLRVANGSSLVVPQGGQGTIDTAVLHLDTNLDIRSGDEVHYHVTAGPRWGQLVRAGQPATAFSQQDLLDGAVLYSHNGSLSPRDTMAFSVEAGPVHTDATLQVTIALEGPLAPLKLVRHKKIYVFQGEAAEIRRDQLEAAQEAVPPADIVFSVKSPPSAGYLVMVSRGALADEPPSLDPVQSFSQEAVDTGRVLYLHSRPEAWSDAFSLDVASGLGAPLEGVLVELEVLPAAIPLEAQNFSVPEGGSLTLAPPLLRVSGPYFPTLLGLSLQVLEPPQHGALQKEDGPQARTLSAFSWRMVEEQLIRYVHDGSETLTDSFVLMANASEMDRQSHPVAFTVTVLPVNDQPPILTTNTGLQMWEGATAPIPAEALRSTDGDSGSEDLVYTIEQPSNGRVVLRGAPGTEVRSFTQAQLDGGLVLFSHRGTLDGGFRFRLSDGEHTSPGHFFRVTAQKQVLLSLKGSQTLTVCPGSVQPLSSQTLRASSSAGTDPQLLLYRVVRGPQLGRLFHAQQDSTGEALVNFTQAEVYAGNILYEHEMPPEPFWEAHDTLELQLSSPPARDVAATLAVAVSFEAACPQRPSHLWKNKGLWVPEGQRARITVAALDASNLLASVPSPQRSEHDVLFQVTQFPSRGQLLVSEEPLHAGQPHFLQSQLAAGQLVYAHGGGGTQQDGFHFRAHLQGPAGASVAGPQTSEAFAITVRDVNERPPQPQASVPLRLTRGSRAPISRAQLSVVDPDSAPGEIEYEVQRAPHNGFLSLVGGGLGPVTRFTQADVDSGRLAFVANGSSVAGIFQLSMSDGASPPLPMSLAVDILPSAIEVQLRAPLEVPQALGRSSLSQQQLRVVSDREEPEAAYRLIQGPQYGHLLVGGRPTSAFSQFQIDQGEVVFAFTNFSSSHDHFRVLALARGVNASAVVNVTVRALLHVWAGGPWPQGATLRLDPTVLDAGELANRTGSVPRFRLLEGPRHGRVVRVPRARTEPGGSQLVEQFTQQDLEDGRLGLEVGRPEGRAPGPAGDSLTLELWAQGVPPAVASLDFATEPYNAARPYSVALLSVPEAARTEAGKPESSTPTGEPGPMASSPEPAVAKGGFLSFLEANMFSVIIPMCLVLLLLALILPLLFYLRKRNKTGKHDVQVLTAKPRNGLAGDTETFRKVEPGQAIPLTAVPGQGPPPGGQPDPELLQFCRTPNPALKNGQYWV

B1: “1+1 IgG scFab” (anti-EGFR/anti-huCD3) (bispecific antibody)
heavy: not shown
chain: DKTHTCPPCPAPEAAGGPSVFLFPPKPKDTLMISRTPEVTCVVVDVSHEDPEVKFNWYVDGVEVHNAKTKPREEQYNSTYRVVSVLTVLHQDWLNGKEYKCKVSNKALGAPIEKTISKAKGQPREPQVCTLPPSRDELTKNQVSLSCAVKGFYPSDIAVEWESNGQPENNYKTTPPVLDSDGSFFLVSKLTVDKSRWQQGNVFSCSVMHEALHNHYTQKSLSLSPGK
light: DIQMTQSPSSLSASVGDRVTITCRASQGINNYLNWYQQKPGKAPKRLIYNTNNLQTGVPSRFSGSGSGTEFTLTISSLQPEDFATYYCLQHNSFPTFGQGTKLEIKRTVAAPSVFIFPPSDEQLKSGTASVVCLLNNFYPREAKVQWKVDNALQSGNSQESVTEQDSKDSTYSLSSTLTLSKADYEKHKVYACEVTHQGLSSPVTKSFNRGEC
binding result [1]: binds

B2: “2+1 IgG scFab, wt” (anti-MCSP/anti-huCD3) (bispecific antibody)
heavy 1: not shown
heavy 2: not shown
light: DIVLTQSPSSLSASLGDRVTISCSASQGIRNYLNWYQQRPDGTVKLLIYYTSSLHSGVPSRFSGSGSGTDYSLTISNLEPEDIATYYCQQYSKLPWTFGGGTKLEIKRTVAAPSVFIFPPSDEQLKSGTASVVCLLNNFYPREAKVQWKVDNALQSGNSQESVTEQDSKDSTYSLSSTLTLSKADYEKHKVYACEVTHQGLSSPVTKSFNRGEC
notes: LC007 (MCSP, two Fabs) x V9 (CD3, one scFab); wild-type Fc domain with knob/hole; also called Fc-wt
Kd [2]: 576 nM
Kd [3]: 3470 nM
Kd [4]: 1500 nM
Kd [5]: 1200 nM
Kd [6]: 600 nM

B3: “2+1 IgG scFab, LALA” (anti-MCSP/anti-huCD3) (bispecific antibody)
heavy 1: not shown
heavy 2: EVQLQESGPGLVKPSQSLSLTCSVTGYSITSGYYWNWIRQFPGNKLEWMGYITYDGSNNYNPSLKNRISITRDTSKNQFFLKLNSVTTEDTATYYCADFDYWGQGTTLTVSSASTKGPSVFPLAPSSKSTSGGTAALGCLVKDYFPEPVTVSWNSGALTSGVHTFPAVLQSSGLYSLSSVVTVPSSSLGTQTYICNVNHKPSNTKVDKKVEPKSCDKTHTCPPCPAPEAAGGPSVFLFPPKPKDTLMISRTPEVTCVVVDVSHEDPEVKFNWYVDGVEVHNAKTKPREEQYNSTYRVVSVLTVLHQDWLNGKEYKCKVSNKALPAPIEKTISKAKGQPREPQVCTLPPSRDELTKNQVSLSCAVKGFYPSDIAVEWESNGQPENNYKTTPPVLDSDGSFFLVSKLTVDKSRWQQGNVFSCSVMHEALHNHYTQKSLSLSPGK
light: B2 light
notes: also called Fc-LALA
binding result [7]: binds
binding result [8]: binds
Kd [9]: 2130 nM
